B2: IL-17RB extracellular domain (receptor, UniProt Q9NRM6 18-292, looked up)
chain: REPTVQCGSETGPSPEWMLQHDLIPGDLRDLRVEPVTTSVATGDYSILMNVSWVLRADASIRLLKATKICVTGKSNFQSYSCVRCNYTEAFQTQTRPSGGKWTFSYIGFPVELNTVYFIGAHNIPNANMNEDGPSMSVNFTSPGCLDHIMKYKKKCVKAGSLWDPNITACKKNEETVEVNFTTTPLGNRYMALIQHSTIIGFSQVFEPHQKKQTRASVVIPVTGDSEGATVQLTPYFPTCGSDCIRHKGTVVLCPQTGVPFPLDNNKSKPGGWLP
notes: extracellular domain; biotinylated when immobilised on the SPR chip
B3: IL-17RC extracellular domain (receptor, UniProt Q8NAC3 21-538, looked up)
chain: LERLVGPQDATHCSPVSLEPWGDEERLRVQFLAQQSLSLAPVTAATARTALSGLSGADGRREERGRGKSWVCLSLGGSGNTEPQKKGLSCRLWDSDILCLPGDIVPAPGPVLAPTHLQTELVLRCQKETDCDLCLRVAVHLAVHGHWEEPEDEEKFGGAADSGVEEPRNASLQAQVVLSFQAYPTARCVLLEVQVPAALVQFGQSVGSVVYDCFEAALGSEVRIWSYTQPRYEKELNHTQQLPDCRGLEVWNSIPSCWALPWLNVSADGDNVHLVLNVSEEQHFGLSLYWNQVQGPPKPRWHKNLTGPQIITLNHTDLVPCLCIQVWPLEPDSVRTNICPFREDPRAHQNLWQAARLQLLTLQSWLLDAPCSLPAEAALCWRAPGGDPCQPLVPPLSWENVTVDKVLEFPLLKGHPNLCVQVNSSEKLQLQECLWADSLGPLKDDVLLLETRGPQDNRSLCALEPSGCTSLPSKASTRAARLGEYLLQDLQSGQCLQLWDDDLGALWACPMDKYIHKR
notes: extracellular domain; biotinylated when immobilised

The target of assay [1] is B2. Nature of the assay: SPR, IL-25 captured on immobilised IL-17RB. The procedure: (§1) To examiner whether IL-17RA may only specifically bind IL-25 once IL-25 is captured by IL-17RB, IL-17RB was immobilized on an SPR chip, IL-25 was passed over this chip and the affinity of IL-17RA for the IL-17RB-IL-25 complex was measured. […] At concentrations up to 50 μM, no interaction could be observed between IL-17RA and IL-25, or between the IL-17RB-IL-25 complex and a second IL-17RB molecule.
(§2) Binding affinities were calculated via surface plasmon resonance (SPR) on a Biacore® T100 (GE Healthcare). C-terminally biotinylated IL-17 receptors were coupled to immobilized streptavidin on either an SA or CM4-sensor chip (GE Healthcare). An irrelevant, biotinylated protein was captured at equivalent immobilization densities to control flow cells. To measure the second receptor binding interaction, the cytokine was first captured to the immobilized receptor, followed by the second receptor injection. Low coupling densities (200-400 RU) and excess cytokine concentrations were used to optimize the number of cytokine homodimers bound to a single receptor. The surface was regenerated using 3 M MgCl2 between each cycle. For kinetic experiments, a flow rate of 50 μl/min was used. Data was analyzed using Biacore® T100 evaluation software Version 2.0 (GE Healthcare). Affinities are reported as the mean of at least two independent experiments±the standard error of the mean (s.e.m.).

Assay [2] addresses T1, preformed IL-17RB-IL-25 complex (IL-25 captured by immobilised IL-17RB) (UniProt Q9NRM6 18-292; Q9H293 33-177, biotin on the C-terminal BirA ligase tag).
T1 construct: extracellular domain;mature; One receptor with one cytokine dimer, assembled stepwise on the SPR chip; not shown: C-terminal BirA ligase tag
T1 sequence 1: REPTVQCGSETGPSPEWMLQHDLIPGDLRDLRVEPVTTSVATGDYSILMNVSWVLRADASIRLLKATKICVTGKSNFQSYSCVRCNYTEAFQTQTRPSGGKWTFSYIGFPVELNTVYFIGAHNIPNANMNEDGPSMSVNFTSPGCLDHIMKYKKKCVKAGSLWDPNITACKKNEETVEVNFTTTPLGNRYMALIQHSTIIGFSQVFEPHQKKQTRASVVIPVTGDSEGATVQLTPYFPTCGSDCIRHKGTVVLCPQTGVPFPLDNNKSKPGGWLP
T1 sequence 2: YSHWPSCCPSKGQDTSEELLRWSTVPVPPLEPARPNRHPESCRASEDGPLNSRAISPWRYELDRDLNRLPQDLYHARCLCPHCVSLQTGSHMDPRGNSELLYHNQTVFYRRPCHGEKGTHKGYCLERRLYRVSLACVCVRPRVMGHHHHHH
Briefly: SPR; second receptor injected over IL-25 captured on immobilised IL-17RB. The procedure: as §1, §2

Assay [3] addresses T2, preformed IL-17RA-IL-17A complex (IL-17A captured by immobilised IL-17RA) (human, UniProt Q16552 24-155).
T2 construct: mature; One receptor with one cytokine dimer, assembled stepwise on the SPR chip; not shown: C-terminal BirA ligase tag
Briefly: SPR, second receptor injected over IL-17A captured on immobilised IL-17RA.
Text: (§3) This strategy involved immobilizing one receptor on a SPR chip at a low coupling density in order to minimize possible homo-dimerization (e.g. cross-linking) of the receptors on the chip. The dimeric IL-17 cytokine was then captured by this receptor so that each receptor would be bound to one dimeric IL-17 ligand, leaving an exposed and accessible second receptor-binding site. The second receptor was subsequently passed over the preformed receptor-cytokine complexes to measure the affinity of the second receptor-binding event. In this fashion, the complex was assembled in a stepwise manner and each of the binding affinities was measured (FIG. 3).
as §2, with “The surface was regenerated using 3 M MgCl2 between each cycle. For kinetic experiments, a flow rate of 50 μl/min was used.” left out, “Affinities are reported as the mean of at least two independent experiments±the standard error of the mean (s.e.m.).” left out

Assay [4] concerns the target T3, preformed IL-17RC-IL-17A complex (IL-17A captured by immobilised IL-17RC) (UniProt Q8NAC3 21-538; Q16552 24-155, biotin on the C-terminal BirA ligase tag).
T3 construct: extracellular domain;mature; One receptor with one cytokine dimer, assembled stepwise on the SPR chip; also called existing IL-17RC-IL-17A complex; not shown: C-terminal BirA ligase tag
Nature of the assay: SPR, second receptor injected over IL-17A captured on immobilised IL-17RC.
Text: as §3
as §2, with “The surface was regenerated using 3 M MgCl2 between each cycle. For kinetic experiments, a flow rate of 50 μl/min was used.” left out, “Affinities are reported as the mean of at least two independent experiments±the standard error of the mean (s.e.m.).” left out

Assay [5] has as its target B3. Briefly: SPR, biotinylated receptor on streptavidin chip, cytokine injected. The procedure:
as §2

Drawing on US20140105855A1 (published 2014), this text covers binding result and Kd for 4 molecules.

T3 sequence (Q16552 other isoform, or with tags, fused parts or gaps): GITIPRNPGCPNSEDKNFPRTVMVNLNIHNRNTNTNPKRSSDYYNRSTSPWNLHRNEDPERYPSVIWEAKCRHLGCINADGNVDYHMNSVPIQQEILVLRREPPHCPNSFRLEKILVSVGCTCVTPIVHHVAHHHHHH
T2 sequence (Q16552 other isoform, or with tags, fused parts or gaps): as above

B1: IL-25 (ligand)
chain: YSHWPSCCPSKGQDTSEELLRWSTVPVPPLEPARPNRHPESCRASEDGPLNSRAISPWRYELDRDLNRLPQDLYHARCLCPHCVSLQTGSHMDPRGNSELLYHNQTVFYRRPCHGEKGTHKGYCLERRLYRVSLACVCVRPRVMGHHHHHH
notes: mature; The form 'mature' is inferred from secretion; also called IL-17E
Regarding B1, in assay [1], the binding result is given as “binds”.

B2: in assay [2], the binding result is given as “no binding (tested: up to 50 µM)”.

In the case of B3, the Kd in assay [3] amounted to 174 nM; in assay [4] it was 8000 nM.

B4: IL-17F (ligand, human)
chain: RKIPKVGHTFFQKPESCPPVPGGSMKLDIGIINENQRVSMSRNIESRSTSPWNYTVTWDPNRYPSEVVQAQCRNLGCINAQGKEDISMNSVPIQQETLVVRRKHQGCSVSFQLEKVLVTVGCTCVTPVIHHVQHHHHHH
notes: mature; For the crystal the His tag was removed with carboxypeptidase A and the complex was lysine-methylated; For SPR the cytokine carried the C-terminal hexa-His tag; also called IL-17F homodimer
In the case of B4, the affinity in assay [5], expressed as Kd, was 4.4 nM.
